“And” between values parts separate entries of the source, which are not always exact repeats. Identical values can stand only once.
Experiments:
Cav3.2 = target: T1, Cav3.2 (Homo sapiens, UniProt O95180); test: Calcium current density in heterologous expression system, Cav3.2; format: cell-based; details: heterologous expression systems
T1 construct: expressed in transfected cells; host or cells: heterologous expression system (HEK-293 stably transfected with Cav3.2 is mentioned)

Cav3.1 [1] = target: T2, Cav3.1 (Homo sapiens, UniProt O43497); test: Whole-cell patch clamp of Cav3.1 current in Cav3.1-HEK cells transfected with γ6, γ4, their first transmembrane domains or point mutants (Example 3); format: cell-based; set-up: Activation K / Inactivation K: unit not given here; details: for Peak current density: Cav3.1-HEK cells, control 48.43±2.62; for Calcium current density (unit not given): Example 2, control −48.39+/−2.6, fusion series control −46.9+/−5; for Normalized Current Density: relative to vector control (100.0%), Table 3.3
T2 construct: expressed in transfected cells; host or cells: HEK-293, stably transfected
Experimental: Transfection. HEK-293 cells stably transfected with the Cav3.1 α1 subunit were transiently transfected with vectors containing GFP and γ subunits cDNA when the cultures reached 50% confluency. Lipofectamine 2000 reagent (Invitrogen) was used following manufacturer's protocol.
Electrophysiology. Whole cell Ca2+ currents were recorded at room temperature using an Axon Instruments Axopatch-1D amplifier, a Digidata 1200 interface and pClamp8.0 software about 48 hours after transfection. Cell capacitance was typically around 10 pF, but ranged from 5-40 pF. Recording micropipettes were made from borosilicate glass (2-3 Mohms tip resistance), and filled with solution contained (in mM) 130 NaCl, 10 EGTA, 2 MgCl2, 1 CaCl2, 10 HEPES, 3 Tris-ATP, and 0.3 Li2GTP or 0.3 Tris-GTP. Tyrode's solution was used as the bath solution. It contained (in mM) 137 NaCl, 1 KCl, 1 MgCl2, 0.33 NaH2PO4, 2 CaCl2, 10 HEPES. Both solutions were adjusted to pH 7.4 with NaOH and 280 mOsm with sucrose.
We determined the biophysical characteristics of Cav3.1 currents in transfected HEK-293 cells and effects of the first transmembrane domain of γ4 and γ6 on these properties. Test parameters were optimized for studying Cav3.1 current. The time constant (τ) of deactivation (τdeac) was obtained by single exponential fitting of tail currents. For Cav3.1 currents, the cells were clamped at a holding potential of −100 mV, then depolarized to −20 mV for 4 msec, and repolarized to various voltages from −120 mV to −60 mV at 10 mV interval for 150 msec to elicit tail currents.
The voltage dependence of activation was measured using tail currents. For Cav3.1 currents, the cells were clamped at a holding potential equal to −100 mV, and then depolarized briefly to a conditioning potential, varying from −90 mV to +60 mV, and finally clamped at −60 mV before inactivation. Using this protocol, all tail currents are elicited at the same driving force (at −60 mV), so the current amplitude accurately reflects the number of channels opened during the different conditioning potentials.
A series of conditioning prepulses of 500 msec were used to measure voltage dependence of inactivation in our experiments. Channels initially open and then reach steady-state inactivation during the 500 msec long prepulses. The membrane potential is stepped to a fixed test potential of −20 mV, where maximal peak current is elicited. Currents elicited at each test potential reflect how many channels are not in the inactivated state after a steady-state inactivation; that is, how many channels are available to open. The conditioning prepulse potentials were changed from −120 mV to 50 mV, and the test potential is fixed at −20 mV.
Data collection and analysis. To probe the structural features necessary for the function of γ subunits, we are using HEK-293 cell line stably transfected with Cav3.1 α1 subunit. These cells are then transiently transfected with vectors containing various chimeric, truncated or mutant gamma subunits. […] There is inherent variation in calcium current density in the HEK-Cav3.1 stable cell line likely due to differences in the batch used, passenger number, extent of cellular confluence, or for other unknown reasons. The averaged current density of each test group of cells was normalized to the mean current density of a parallel control group of cells plated from the same batch of cells and analyzed on the same day. A minimum of 5 cells (typically 7 to 10) from each group was used to calculate the mean behavior of test and control cells from each days recording. At least two independent transfections were performed for each test condition. Overall, averages were obtained from 21 control groups of cells that had been transfected with empty vector over several months. The data are pooled together to reduce the variance. […] The current density of the control cells over many months justified the pooling of data recorded from different batches of cells transfected with mutated γ subunits. […]

Cav3.1 [2] = target: T2, Cav3.1; test: Co-immunoprecipitation of Flag-tagged γ subunits with Cav3.1; format: binding
Experimental: Immunoprecipitation and Immunodetection. HEK-293 cells stably transfected with Cav3.1 were grown in T25 tissue culture flasks and transiently transfected when 70-90% confluent. Five μg of each plasmid expression vector was transfected per T25 flask using 15 μL Lipofectamine 2000 reagent (Invitrogen, Carlsbad, Calif.) as per the manufacturer's recommendations. Cells were processed for immunoprecipitation assay and immunoblot analysis 24 hr post-transfection. Cells were washed and scraped from flasks with ice cold PBS (without Ca^2+ or Mg^+) and centrifuged for 5 min at 500×g at 4° C. Cell pellets were resuspended in 1.0 mL lysis buffer (50 mM Tris HCl, 150 mM NaCl, 1 mM EDTA, 2% Triton X-100, and 1:100 Protease Inhibitor Cocktail Set III (EMD Biosciences, San Diego, Calif.)) and incubated with constant mixing for 1 hr at 4° C. Samples were cleared by centrifugation at 10,000×g for 2 min at 4° C. Equal amounts of cell lysate were added to a 75 μL bed volume of anti-FLAG M2 affinity gel (Sigma, St. Louis, Mo.) that was washed three times with lysis buffer. Samples were immunoprecipitated with constant mixing overnight at 4° C. Beads were washed three times with lysis buffer and incubated in sample buffer containing 1% SDS, 50 mM DTT, and 10% glycerol for 30 minutes at 25° C. […]

Cav2.3 = target: T3, Cav2.3 (Homo sapiens, UniProt Q15878); test: Calcium current density in heterologous expression system, Cav2.3; format: cell-based; details: heterologous expression systems
T3 construct: expressed in transfected cells
T3 sequence (Q15878 whole entry): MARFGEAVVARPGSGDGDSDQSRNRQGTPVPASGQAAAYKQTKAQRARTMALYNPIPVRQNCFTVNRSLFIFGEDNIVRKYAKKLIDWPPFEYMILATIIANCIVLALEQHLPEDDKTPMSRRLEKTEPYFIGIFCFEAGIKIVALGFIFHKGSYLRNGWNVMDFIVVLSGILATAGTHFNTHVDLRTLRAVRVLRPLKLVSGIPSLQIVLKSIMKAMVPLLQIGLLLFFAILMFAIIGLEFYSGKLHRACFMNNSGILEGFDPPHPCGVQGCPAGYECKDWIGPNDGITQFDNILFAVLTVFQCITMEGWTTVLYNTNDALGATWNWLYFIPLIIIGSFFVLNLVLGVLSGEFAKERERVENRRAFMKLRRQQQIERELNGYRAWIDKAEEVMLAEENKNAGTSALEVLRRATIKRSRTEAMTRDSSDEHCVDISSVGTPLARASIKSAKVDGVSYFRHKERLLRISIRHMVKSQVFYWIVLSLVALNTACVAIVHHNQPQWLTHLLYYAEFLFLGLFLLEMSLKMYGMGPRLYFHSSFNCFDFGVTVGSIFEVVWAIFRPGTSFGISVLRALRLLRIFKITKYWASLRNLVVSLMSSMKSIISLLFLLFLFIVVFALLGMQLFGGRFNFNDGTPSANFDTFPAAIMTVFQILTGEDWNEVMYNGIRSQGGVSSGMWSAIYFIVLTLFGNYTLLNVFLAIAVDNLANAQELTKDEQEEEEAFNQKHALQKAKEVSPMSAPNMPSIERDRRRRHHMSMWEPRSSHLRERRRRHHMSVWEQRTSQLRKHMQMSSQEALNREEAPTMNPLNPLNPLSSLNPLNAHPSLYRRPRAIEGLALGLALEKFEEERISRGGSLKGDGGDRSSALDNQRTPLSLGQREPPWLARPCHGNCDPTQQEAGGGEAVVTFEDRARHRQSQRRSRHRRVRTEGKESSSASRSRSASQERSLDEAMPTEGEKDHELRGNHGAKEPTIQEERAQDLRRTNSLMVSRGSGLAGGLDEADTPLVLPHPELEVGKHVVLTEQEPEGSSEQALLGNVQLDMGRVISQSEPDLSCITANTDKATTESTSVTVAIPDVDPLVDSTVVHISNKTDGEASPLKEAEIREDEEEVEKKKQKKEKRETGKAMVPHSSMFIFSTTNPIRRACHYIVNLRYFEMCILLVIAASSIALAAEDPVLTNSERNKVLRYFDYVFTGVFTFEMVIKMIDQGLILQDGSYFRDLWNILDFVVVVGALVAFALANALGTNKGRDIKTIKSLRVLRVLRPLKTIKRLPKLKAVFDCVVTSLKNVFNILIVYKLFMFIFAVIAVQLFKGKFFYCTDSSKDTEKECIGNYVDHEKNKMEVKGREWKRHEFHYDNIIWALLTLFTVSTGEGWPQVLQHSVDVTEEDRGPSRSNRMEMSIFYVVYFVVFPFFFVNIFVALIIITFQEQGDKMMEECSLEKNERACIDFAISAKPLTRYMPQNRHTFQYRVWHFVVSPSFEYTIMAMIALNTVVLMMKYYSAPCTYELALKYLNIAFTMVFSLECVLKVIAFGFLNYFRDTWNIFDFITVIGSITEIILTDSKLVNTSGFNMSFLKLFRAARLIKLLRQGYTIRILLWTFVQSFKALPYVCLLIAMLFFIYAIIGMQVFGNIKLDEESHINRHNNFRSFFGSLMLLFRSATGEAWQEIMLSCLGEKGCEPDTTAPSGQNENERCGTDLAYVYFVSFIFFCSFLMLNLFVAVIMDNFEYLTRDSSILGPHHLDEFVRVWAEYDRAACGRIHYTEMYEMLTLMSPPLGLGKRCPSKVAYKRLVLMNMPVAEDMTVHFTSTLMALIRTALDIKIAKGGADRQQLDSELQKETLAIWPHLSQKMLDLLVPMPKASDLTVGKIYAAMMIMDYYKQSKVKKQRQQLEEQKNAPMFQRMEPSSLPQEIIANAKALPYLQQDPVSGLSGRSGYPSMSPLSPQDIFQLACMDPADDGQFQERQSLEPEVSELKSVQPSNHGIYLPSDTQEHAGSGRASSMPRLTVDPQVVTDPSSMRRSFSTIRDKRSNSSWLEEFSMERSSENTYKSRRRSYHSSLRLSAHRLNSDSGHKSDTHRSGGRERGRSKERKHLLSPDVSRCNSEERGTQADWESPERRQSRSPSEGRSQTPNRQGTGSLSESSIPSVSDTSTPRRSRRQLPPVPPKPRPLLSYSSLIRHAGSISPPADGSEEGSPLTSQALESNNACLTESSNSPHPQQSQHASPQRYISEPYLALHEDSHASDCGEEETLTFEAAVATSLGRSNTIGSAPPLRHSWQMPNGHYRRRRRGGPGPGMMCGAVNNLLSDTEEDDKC

T2 sequence (O43497 whole entry, the tested form may be a part): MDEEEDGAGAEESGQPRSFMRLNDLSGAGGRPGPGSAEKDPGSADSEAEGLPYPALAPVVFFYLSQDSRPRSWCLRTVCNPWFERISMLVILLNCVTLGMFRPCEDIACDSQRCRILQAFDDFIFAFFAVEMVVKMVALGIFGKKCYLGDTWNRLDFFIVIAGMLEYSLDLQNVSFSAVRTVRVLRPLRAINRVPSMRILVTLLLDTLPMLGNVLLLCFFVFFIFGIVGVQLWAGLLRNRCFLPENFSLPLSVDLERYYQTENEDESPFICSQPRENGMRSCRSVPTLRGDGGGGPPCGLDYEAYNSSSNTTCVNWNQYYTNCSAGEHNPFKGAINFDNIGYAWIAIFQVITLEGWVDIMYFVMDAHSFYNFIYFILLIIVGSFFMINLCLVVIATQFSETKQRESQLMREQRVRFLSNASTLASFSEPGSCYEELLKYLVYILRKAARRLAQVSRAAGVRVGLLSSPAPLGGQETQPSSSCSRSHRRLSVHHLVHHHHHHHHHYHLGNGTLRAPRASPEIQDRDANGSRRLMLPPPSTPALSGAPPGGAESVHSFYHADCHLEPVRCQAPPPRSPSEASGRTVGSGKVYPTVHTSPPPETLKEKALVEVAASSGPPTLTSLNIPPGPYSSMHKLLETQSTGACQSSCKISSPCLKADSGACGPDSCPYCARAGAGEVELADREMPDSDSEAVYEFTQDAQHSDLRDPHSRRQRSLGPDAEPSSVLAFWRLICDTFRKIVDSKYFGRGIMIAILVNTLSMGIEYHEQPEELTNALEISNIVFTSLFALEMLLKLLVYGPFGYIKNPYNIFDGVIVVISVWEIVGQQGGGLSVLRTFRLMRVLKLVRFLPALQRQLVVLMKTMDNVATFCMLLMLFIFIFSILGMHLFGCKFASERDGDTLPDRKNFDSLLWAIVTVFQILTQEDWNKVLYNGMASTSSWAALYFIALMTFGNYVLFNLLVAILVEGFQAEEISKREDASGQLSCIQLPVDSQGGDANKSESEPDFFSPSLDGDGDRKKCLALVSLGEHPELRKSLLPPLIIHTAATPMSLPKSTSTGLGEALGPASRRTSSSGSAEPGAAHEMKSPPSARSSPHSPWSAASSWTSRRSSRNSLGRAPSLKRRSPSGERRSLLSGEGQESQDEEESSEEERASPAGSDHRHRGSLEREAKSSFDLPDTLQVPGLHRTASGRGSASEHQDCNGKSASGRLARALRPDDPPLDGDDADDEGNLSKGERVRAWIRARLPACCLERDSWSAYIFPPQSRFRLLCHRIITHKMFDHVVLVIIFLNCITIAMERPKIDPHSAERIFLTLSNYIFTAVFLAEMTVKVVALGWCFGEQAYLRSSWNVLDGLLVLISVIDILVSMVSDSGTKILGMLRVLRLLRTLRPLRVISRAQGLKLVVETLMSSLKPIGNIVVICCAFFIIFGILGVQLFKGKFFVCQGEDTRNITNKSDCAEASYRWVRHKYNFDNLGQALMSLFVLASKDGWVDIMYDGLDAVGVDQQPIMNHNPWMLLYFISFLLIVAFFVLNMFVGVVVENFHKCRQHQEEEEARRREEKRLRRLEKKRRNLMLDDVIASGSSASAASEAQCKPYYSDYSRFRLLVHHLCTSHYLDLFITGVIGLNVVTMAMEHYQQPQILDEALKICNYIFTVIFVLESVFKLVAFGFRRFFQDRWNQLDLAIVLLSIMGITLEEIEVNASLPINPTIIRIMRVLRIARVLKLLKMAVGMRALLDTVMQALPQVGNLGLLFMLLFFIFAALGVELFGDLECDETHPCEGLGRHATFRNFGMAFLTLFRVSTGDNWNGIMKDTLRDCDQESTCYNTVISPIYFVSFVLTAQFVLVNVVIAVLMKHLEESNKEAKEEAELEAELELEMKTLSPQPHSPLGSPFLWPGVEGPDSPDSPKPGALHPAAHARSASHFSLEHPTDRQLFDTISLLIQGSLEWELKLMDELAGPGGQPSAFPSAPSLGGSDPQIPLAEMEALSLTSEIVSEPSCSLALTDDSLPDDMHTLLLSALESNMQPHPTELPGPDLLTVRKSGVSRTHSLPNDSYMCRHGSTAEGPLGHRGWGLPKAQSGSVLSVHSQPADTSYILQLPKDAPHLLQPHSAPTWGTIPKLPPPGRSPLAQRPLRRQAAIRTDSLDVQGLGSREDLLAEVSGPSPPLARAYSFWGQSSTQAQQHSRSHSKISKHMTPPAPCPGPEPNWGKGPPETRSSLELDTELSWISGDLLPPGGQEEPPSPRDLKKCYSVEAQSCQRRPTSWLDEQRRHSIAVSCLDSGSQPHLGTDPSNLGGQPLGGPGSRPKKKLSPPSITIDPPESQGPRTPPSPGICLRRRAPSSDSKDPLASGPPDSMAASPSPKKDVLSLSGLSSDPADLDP

Molecule	Effect on Cav3.2 calcium current density (Cav3.2)	Peak current density (Cav3.1 [1]) [pA/pF]	Calcium current density (unit not given) (Cav3.1 [1])	Decrease of peak current density from control (Cav3.1 [1]; TM1 series, vs blank vector) [%]	Activation K (Cav3.1 [1]; Table 3.2)	Activation V½ (Cav3.1 [1]; Table 3.2) [mV]	Deactivation τ @−100 mV (Cav3.1 [1]; Table 3.2) [ms]	Inactivation K (Cav3.1 [1]; Table 3.2)	Inactivation V½ (Cav3.1 [1]; Table 3.2) [mV]	Inactivation τ @−20 mV (Cav3.1 [1]; Table 3.2) [ms]	Time to peak @−25 mV (Cav3.1 [1]; Table 3.2)	Averaged peak current (Cav3.1 [1]; group transfected with γ6, n=10) [pA]	Decrease of Cav3.1 peak current density from control (Cav3.1 [1]; mutant series, control 100%±4.4%) [%]	Normalized Current Density (Cav3.1 [1]; listed as γ6)	Co-immunoprecipitation with Cav3.1 (Cav3.1 [2]; FIG. 36A)	Effect on Cav2.3 calcium current density (Cav2.3)	Activation V peak (Cav3.1 [1]; Table 3.2) [mV]	Normalized Current Density (Cav3.1 [1])	Interaction with Cav3.1 relative to γ6 (Cav3.1 [2]; Cav3.1 in anti-Flag immunoprecipitates, FIG. 36B)
γ6L: rat calcium channel γ6 subunit, long isoform (AF361343), SEQ ID NO:48 (protein, listed as Rattus norvegicus) MMWSNFFMQEEDRRRTAVGRRRAQEQQNLGLTPEREGKIKLGLLVAIVGATLAVLAVGTEFWVELNTYKTNGSAVCEAAHLGLWKVCIKRLWQADVPAGRETCGPAELPGEANCTYFKFFTTGENAHIFQRTTKKEVNLAAAVIAVLGLTAMALGCLCVIMVLSKGAEFLLRLGAVCFGLSGLLLFVSLEVFRHSVRALLQGVNPETPPAPRLAYEYSWSLGCGVGAGLILLLGGVCFLLLTLPSWPWRSLCPKRGGPTA	decreased	27.85±3.32	−7.8+/−3.3	42	11.99 ± 1.39	−28.12 ± 4.07	2.22 ± 0.19	−5.42 ± 0.34	−67.53 ± 4.81	23.9 ± 1.6	9.03 ± 0.57	−344.2±48.4	45	55.4%±5.7% and 55.4%	robust coimmunoprecipittion	decreased			
γ4: rat calcium channel γ4 subunit (AF361341), SEQ ID NO:47 (protein, listed as Rattus norvegicus) MVRCDRGLQMLLTTAGAFAAFSLMAIAIGTDYWLYSSAHICNGTNLTMDDGPPPRRARGDLTHSGLWRVCCIEGIYKGHCFRINHFPEDNDYDHDSSEYLLRIVRASSVFPILSTILLLLGGLCIGAGRIYSRKNNIVLSAGILFVAAGLSNIIGIIVYISSNTGDPSDKRDEDKKNHYNYGWSFYFGALSFIVAETVGVLAVNIYIEKNKELRFKTKREFLKASSSSPYSRMPSYRYRRRRSRSSSRSTEASPSRDASPVGLKITGAIPMGELSMYTLSREPLKVTTAASYSPDQDAGFLQMHDFFQQDLKEGFHVSMLNRRTTPV		48.28±3.30	−56.3+/−5		12.83 ± 0.79	−31.62 ± 3.24	2.20 ± 0.11	−6.04 ± 0.24	−67.77 ± 1.86	27.3 ± 1.4	8.37 ± 0.39						−29.44±1.89	116.02%±11.4% and 116.0%	approximately 10 % of γ6

From patent US8022177B2, “Peptides and calcium regulation in mammalian cells” (The Board of Trustees of the University of Illinois, priority 2005, dated 2011)
